We go through one molecule from paper PMC8611094, “RNA G-quadruplex structures control ribosomal protein production”.

This data set concerns the target DDX3X (UniProt O00571 1-662). Description: ELISA; ELISA performed as in Zyner et al. (ref 43); buffer, salt, pH and temperature not given in the material. The following applies: protein: commercial; tags: FLAG; label: 5' biotin; intramolecular G4.

DDX3X, sequence (O00571 whole entry): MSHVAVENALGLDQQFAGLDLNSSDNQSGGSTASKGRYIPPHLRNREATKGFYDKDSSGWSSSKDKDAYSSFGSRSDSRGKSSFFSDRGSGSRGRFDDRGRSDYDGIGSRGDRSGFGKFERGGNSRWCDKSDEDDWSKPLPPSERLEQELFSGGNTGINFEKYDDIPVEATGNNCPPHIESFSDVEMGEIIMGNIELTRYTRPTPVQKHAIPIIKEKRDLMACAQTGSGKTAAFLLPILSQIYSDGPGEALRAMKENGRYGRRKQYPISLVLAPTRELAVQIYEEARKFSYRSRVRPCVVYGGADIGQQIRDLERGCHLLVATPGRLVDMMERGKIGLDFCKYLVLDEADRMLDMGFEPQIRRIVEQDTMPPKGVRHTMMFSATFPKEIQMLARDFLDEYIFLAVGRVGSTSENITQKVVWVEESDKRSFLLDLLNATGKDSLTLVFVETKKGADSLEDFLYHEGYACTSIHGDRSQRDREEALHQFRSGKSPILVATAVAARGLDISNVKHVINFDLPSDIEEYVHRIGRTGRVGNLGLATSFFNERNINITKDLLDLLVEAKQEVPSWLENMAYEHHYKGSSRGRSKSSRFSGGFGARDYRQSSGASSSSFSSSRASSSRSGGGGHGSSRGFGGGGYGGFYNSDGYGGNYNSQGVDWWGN

B1: NRAS G4 (structured_RNA)
RNA: UGUGGGAGGGGCGGGUCUGGGUGC
Take B1: the Kd turned out to be 18 nM.
